{
  "source": "patent US20080207488A1",
  "about": "“Method for Detecting Peptides Comprising a Cross-B Structure” (priority 2005, published 2008)",
  "key": {"[1]": {"target": "T1, tPA (Homo sapiens, UniProt P00750)", "T1 construct": "purchased Boehringer-Ingelheim (Actilyse, Alteplase)", "T1 sequence (P00750 36-562)": "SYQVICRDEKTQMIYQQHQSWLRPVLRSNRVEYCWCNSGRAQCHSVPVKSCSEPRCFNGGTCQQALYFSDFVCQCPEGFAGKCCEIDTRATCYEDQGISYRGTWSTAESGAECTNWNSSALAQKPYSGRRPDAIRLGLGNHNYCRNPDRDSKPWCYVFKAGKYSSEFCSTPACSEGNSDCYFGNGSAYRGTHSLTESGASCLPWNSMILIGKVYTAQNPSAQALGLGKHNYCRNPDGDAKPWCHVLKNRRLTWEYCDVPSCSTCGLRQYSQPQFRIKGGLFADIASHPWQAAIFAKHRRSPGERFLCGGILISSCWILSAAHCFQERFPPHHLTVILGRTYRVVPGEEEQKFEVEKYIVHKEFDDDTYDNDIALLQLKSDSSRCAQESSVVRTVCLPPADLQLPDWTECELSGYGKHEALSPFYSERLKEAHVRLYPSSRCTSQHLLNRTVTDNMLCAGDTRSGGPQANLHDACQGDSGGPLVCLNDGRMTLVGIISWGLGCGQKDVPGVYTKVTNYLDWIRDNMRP", "experiment": "tPA binding assay with immobilized biopharmaceuticals in an ELISA", "conditions": "therapeutic coated 1:10; one-site binding fit", "procedure": "Nunc Immobilizer plates (Nalge Nunc, #436013, Rochester, N.Y., USA) were coated with 50 μL containing 5 μg/mL of sample protein (unless indicated otherwise) in 100 mM NaHCO3, pH 9.6, 0.05% m/v NaN3 for 1 hour at room temperature. Plates were washed twice with Tris buffered saline pH 7.2 containing 0.1% Tween20 (TBST) and blocked with PBS containing 1% Tween20 for 1 hour at room temperature. […] Plates were washed five times with TBST and incubated with peroxidase labeled anti-mouse immunoglobulins (RAMPO; DAKOCytomation, Glostrup, Denmark) diluted 1:3000 in PBST for 30 minutes at room temperature. Plates were washed five times with PBS 0.1% Tween20, and stained with 100 μL/well of tetramethyl-benzidine (TMB) substrate (Biosource Europe, Nivelles, Belgium). The reaction was terminated with 50 μL/well of 2 M H2SO4 and substrate conversion was read at 450 nm on a Spectramax340 microplate reader. Curves were fitted with a one-site binding model (GraphPad Prism version 4.02 for Windows, Graphpad Software, CA, USA) from which Kd and Bmax were determined.\nProtein therapeutics were obtained from the local hospital pharmacy and analyzed within the expiry limits as stated by the manufacturers."}, "[2]": {"experiment": "ThT fluorescence of LPS-protein mixtures", "type": "physicochemical", "conditions": "for ThT fluorescence enhancement vs protein in buffer only: 1 mg ml^−1 protein", "procedure": "Fluorescence of ThT-protein/peptide adducts was measured as follows. […] Fluorescence was measured at 485 nm upon excitation at 435 nm. Background signals from buffer, buffer with ThT and protein/peptide solution without ThT were subtracted from corresponding measurements with protein solution incubated with ThT. […] Fluorescence was measured in triplicate on a Hitachi F-4500 fluorescence spectrophotometer (Ltd., Tokyo, Japan).\nSubsequently, the ability to enhance ThT fluorescence was determined with 40× diluted solution, as described above. […]"}, "[3]": {"target": "T1, tPA", "experiment": "Biacore surface plasmon resonance, binding to immobilized tPA", "conditions": "Hb-AGE 32, amyloid γ-globulins 62.5, albumin-AGE 3.9 μg ml^−1", "procedure": "Binding of cross-β structure conformation containing peptides/proteins was studied using surface plasmon resonance technology with a Biacore 2000 apparatus (Biacore AB, Uppsala, Sweden). A standardized amine coupling procedure was used to couple proteins with F domains to a CM5 chip (Biacore AB, Uppsala, Sweden). First, the dextran surface of the chips was activated by a 35 μl injection with a 1:1 mixture of 0.1 M N-hydroxysuccinimide (NHS) and 0.4 M N-ethyl-N′-(dimethylaminopropyl)carbodiimide (EDC) at a flow rate of 5 μl min.^−1. Then, the proteins were covalently coupled to the activated dextran surface. Remaining activated groups in each of the four flow channels were blocked by injection of 35 μl of 1 M ethanolamine hydrochloride pH 8.5. EDC, NHS and ethanolamine hydrochloride were obtained from Biacore. On one chip, on channels 1 to 4, buffer (reference channel), the soluble extracellular part of receptor for advanced glycation endproducts (sRAGE), tPA and K2P-tPA were immobilized. […] Binding of albumin-AGE was determined with a solution of 3.9 μg ml^−1 albumin-AGE in running buffer. albumin-AGE was filtered on a Millex-GV 0.22 μm filter unit (Millipore). […] Binding of Hb-AGE was also tested after centrifugation for 10 min. at 16,000*g alternative to filtration. tPA activation before and after filtration was assessed with a Plg-activation assay. […]"}},
  "data": [
    {"substance": "Abciximab: abciximab, an inhibitor of blood platelet aggregation (ReoPro, Centocor)", "values": [
      {"measurement": "tPA Binding Bmax (OD450 nm)", "setting": "[1]", "result": 0.5329, "unit": "OD450 nm"}
    ]},
    {"substance": "lysozyme: chicken egg-white lysozyme", "values": [
      {"measurement": "ThT fluorescence enhancement", "setting": "[2]; 200 μg ml^−1 LPS (FIG. 4D, E)", "result": "approximately 5 times"},
      {"measurement": "ThT fluorescence enhancement", "setting": "[2]; 400 μg ml^−1 LPS (FIG. 4D, E)", "result": "~11", "unit": "times"},
      {"measurement": "ThT fluorescence enhancement", "setting": "[2]; 600 μg ml^−1 LPS (FIG. 4D, E)", "result": "~18", "unit": "times"},
      {"measurement": "ThT fluorescence enhancement", "setting": "[2]; 1 mg ml^−1 protein exposed to 600 μg ml^−1 LPS (FIG. 4C)", "result": "approximately 10 times"},
      {"measurement": "ThT fluorescence enhancement vs protein in buffer only", "setting": "[2]; 10 μg ml^−1 LPS (FIG. 4B)", "result": 1.1, "unit": "times"},
      {"measurement": "ThT fluorescence enhancement vs protein in buffer only", "setting": "[2]; 25 μg ml^−1 LPS (FIG. 4B)", "result": 1.3, "unit": "times"},
      {"measurement": "ThT fluorescence enhancement vs protein in buffer only", "setting": "[2]; 100 μg ml^−1 LPS (FIG. 4B)", "result": 1.6, "unit": "times"},
      {"measurement": "ThT fluorescence enhancement vs protein in buffer only", "setting": "[2]; 200 μg ml^−1 LPS (FIG. 4B)", "result": 2.3, "unit": "times"},
      {"measurement": "ThT fluorescence enhancement vs protein in buffer only", "setting": "[2]; 600 μg ml^−1 LPS (FIG. 4B)", "result": 5.7, "unit": "times"},
      {"measurement": "ThT fluorescence enhancement vs protein in buffer only", "setting": "[2]; 1200 μg ml^−1 LPS (FIG. 4B)", "result": 13.1, "unit": "times"}
    ]},
    {"substance": "albumin-AGE: advanced glycation end-product modified bovine serum albumin", "values": [
      {"measurement": "binding to immobilized tPA", "setting": "[3]", "result": "bind"}
    ]}
  ]
}
